Source: the DeepSol protein solubility set

assay: soluble on expression in E. coli; label from the status in PepcDB or PDB records

**Q.** For “MAHHHHHHMMSMRPTTGMAPPPTGMAFSATGSSHTGPMRPTTTMGGGTTLGRIQAQVQEGTFTSTVYGYIRDHQYEEAVELLATQLEEFPRSRAAASLMAYCYYMMGDYGEAASLYEQLTKICPNIEEYRVYYAQSLYKAGAYAESNRLCTLITSPQNQTTLNKLQAAIAYEQEDIPQTKSFLDQAPETDTDMLVLRACVLSKEGSYEEALEKFKEAQNAVGFSAALTYNMALMYYKMEQYGPALRHLAEIIDRGVEEHPELNIGTNTEGGEARSVGNTQLLRETALIEAFNLKAAIEYASKNMQAAKEALTDMPPRTDAELDPVTLHNTALINMDENPTNAFKKFNFLLQNPPFPPETFQNLLLFYCKYQYYDLAADVLAENPHLAWQYLSQNNQSLYDFLDGLITAQTSPAEAYRKFDILAQKMVQQLRNMTRRIQEADQSQDAAVAKTAVRTYDVTLEEYIPVLMAQANIYWEMENYPMVEQLFRQSADFCSENDVWKQNVAHVFFMQETKFKEAIRYYSPVVEANRENILNCSAIVLANLCVSYIMTAQNEQAEEIMRRIERAEERLTYEDSSKQPLHLCIVNLVIGTLYCSKGNFEFGISRIIKSLEPYDRKIMTDTWFYAKRCFLALAMNLAKHMVSLKDSSFEEILFFFDQADLHGEKIFAFIHPDPSKQDTSPRNTARWEARQLKKLYLTLKE”, which “soluble on expression in E. coli” value is on record?
**A.** not soluble

**Q.** Which “soluble on expression in E. coli” value does the source give for “MAHHHHHHMGKALGMQRAKAQRLRKVVLRGSAAGSRSFLLYAQPTPNMLSETSGAVVDMCTDEFSIDIKEPSPEDAIVVASLTLRKKKMQKWREEKRTAAKPPKRAQSGASTCTLNFNKQETRWPLKISEC” here?
**A.** not soluble

**Q.** With “MGSDKIHHHHHHMNGIGATPYSESQKFHIAAIILAAGFSLRMKSFKPLLPLGSASVIETAIQSFRKAGFMDIRVVLGHKAGELLPICDALGVQPILNEDYAEGMFSSVKAGVKSLGREVDGFFLLPADNPLIQADTLQRLYEGFNLGPGGIVYPVCQGKRGHPPLISRSYRDSILSWRGEGGLRALLEHYQADALEVGTEDQGVLLDMDTPEDYRTLLKHYGCAPTPTEFECYELLKGNNTPDQVIKHCETVARLSVFLGEQLSEAGLHLNRELLRTSALLHDIARLKPNHPQEGAKLTAAYPEVSAIIAAHMDCPWEPSQPLTEQEIVYLADKLVAKERIVSLQERFKGSVERHQNEPEVLEHVYRRFGQAYRIHDRVEEILGKSVQTLIKSNLGSDVHG” as the sequence, how does the “soluble on expression in E. coli” value read?
**A.** not soluble

**Q.** For “MERVTRKVQVTGGSTYIISLPPEWIKRNNIGKGSEVSVIDQGSDLVVTAPENSEPEITKKITLPGSYTGKPLQRLLTSTYISGFDTLVVVSKDKMTAEMRDDIKRFAKVVMGIEVIEETSRSIVLQNVLNASTFPLQKAIRRMSLNVSTMIEDTIKAIQDEDDDLVENIILRDDEVDRYQWYIYREVKIRCRDDRSNVYILVLSRILERIADHAVNICQAIKNRKGIKGKEKMVENLAYSKDVYNQAMETFYSKNFGEIDGIINRKSEITSRKYELLKILSYDSVLSSVAEEISRIGLYGTDIAELAMDLIMSDKDEFSV”, which “soluble on expression in E. coli” value is on record?
**A.** not soluble

**Q.** With “MGSDKIHHHHHHMVSLFKIIQVGDHGEVPGAEVFWMKDFDKWYRLSFYSFLIKTENDQYVLINTGLPDDLSLRNKFLKEWAKSDRCKFQHVEKIENALAKLNITTDDISHIIITPVQDYTIGRIHMFRKAKLYFSKKGWYEDVVTPSPSPFLNRDIYLPRLTREYLFDEAWNRIVLVENQEVIKGIEVKWTGCHHRSSMLVKFNFDKKRWCISDSAFVMNNFEQNIPIGIAEDIYECLNAYDYMRRECDVVIPSYDPENVNRFKEYILK” as the sequence, how does the “soluble on expression in E. coli” value read?
**A.** not soluble

**Q.** For “MGSDKIHHHHHHVSVPTQHHLSAERLDQSAQFARITSTVEAPVLSLWLPDPQQAVPSACGRAVAGHDGPSEGAGGQRQGGESGQLCRAHLRLQPGPVLAGEAEAPPTRPQFLLVVATHLQRSFTREVKLHGRCPRRVRRPFHLITQIDNQVRGCRPDLTQHRREREGVPVHVADDCHSHPSSLAQTGAAPPANMRPMSILPDWRIRELAQAGMIEPFEDRLIRTAENGHVISYGLSSFGYDLRCADEWKVFTNVHGALVDPKNFDERSFVDLQANAIIIPPNSFVLARSLEYLRIPENVMVVALGKSTYARCGIVANVTPLEPGWEGHVTLEFSNTTPLPAKMYAFEGCVQLLFFEGERPAVTYRDRGGKYQKQRGVTLPRL”, which “soluble on expression in E. coli” value is on record?
**A.** not soluble

**Q.** Which “soluble on expression in E. coli” value does the source give for “MNSAWALLRLASPQLPIGGYSYSQGLEMAVEQSIVIDPQTAGRWIGDQLLLNLARFEAPLLLAHCEAAAVGDWGQLLQVSEQHRASRETRELHQESRQMGYSLQQLLNGLPELDRDARRFLEQTTEPHLALGWALAARTWRISPQDALAAWLWSWLENQLAVLMKTLPLGQQAAQRLTSELLPLLQQAQVNASAQDTHPAGSAAFGLALASMAHERQYSRLFRS” here?
**A.** soluble

**Q.** For “MANSNTQRMGTGSAILPARRRRATPRRLPKRAAHHYTPRVFSAIEPENSPMLKRSLALAAGIALSLSAALAHAETLKELKVSAIPDEAPTELLRKFKPLGAYLEKQLGMPVKFVPVADYAGVVEALAADRLDMAWLGGFTFVQARLKTGNAIPLVQREQDQQFTSKFITADPQVKSLQDLKGKTFAFGSVSSTSGSLMPRYFMQKDGIVPEQFFSRVAYSGAHDATVAWVQAGKVDAGVLNASVWQKLVDSGKVDTAKVKVFATTPTYYDYNWTVRGNLDPALAEKIKQAFLALDPAKPADKEILDLQAASRFIETNPDNYKGIEESARAAGLLK”, which “soluble on expression in E. coli” value is on record?
**A.** not soluble

**Q.** For “MPKIPITLITGFLGSGKTSFLSEYLNQTDHQGVALIINEIGQAALDQRILSVQYCGEKMLYLNAGCVCCNKRLDLVESLKATLNNYEWHGEILRRIIIETTGLANPAPILWTILSDTFLGVHFEIQSVVACVDALNAREHLTNNEAKEQIVFADSVLLTKTDLQNDSAALTKLKERIQALNPSAEIFDKRAIDYESLFSRKNRARNFMPRMPKDSHSQGFETLSINFEGTMEWSAFGIWLSLLLHQYGTQILRIKGIIDIGSGFLVSINGVMHVIYPPKHILKDQNGSNLVFIMRHLEREKILNSLKGFKDFLGIKGFETQLEHHHHHH”, which “soluble on expression in E. coli” value is on record?
**A.** soluble

**Q.** Which “soluble on expression in E. coli” value does the source give for “MKKVGVVIPIYNVEKYLKECLDSVINQTYTNLEIILVNDGSTDENSLNIAKEYTLKDKRIILFDKKNGGLSSARNVGIEYFSGEYETQYIEKENELNVFKIIGDNPQNIYKIYKYKNALASDKLEISKIDYIIFLDSDNYWELNCIEECVVRMQNVDVLWFDHACIYDDGIEDKGQKTRMNVFNFTQECTITPRDYAKQAIKVGSRDISFSWGGMIDFSFLKQLKLKFINKIINEDIHFGMVLFASADSIYILPKRLYLCRLRANSISNHDKKVTKANVSEYFKDLYEFFGENAKEAKNYLKAASRMITALELIEFFKDQKNENSQAIKEAFLPFYVKKALMIKKFKKDPLNLKEKLPIIKPFIQTKIPYDLWKIWQKIKGILDKINFAK” here?
**A.** soluble

**Q.** For “MMLRTEEMILNVGPQHPSTHGVFRLILKIDGEIIQEATPVIGYLHRGTEKIAEGLQYTQIIPYTDRMDYLSAMTNNYVLCHAVETMMGIEVPERAEYLRVLAMELGRIASHLVWWGTYLLDLGATSPFLYAFREREMIINLLNELSGARLTFNYMRIGGVKWDAPDGWIDKVKQFVPYMREKLHGYHELVTGNEIFRQRVTGVGRYTKEEAISYSLSGVNLRSTGVKWDLRKDEPYSIYDRFDFDVPVRDSGDCLARYECRMAEIEQSLCIIEQACEQFPPEGPIMGKVPRIIKAPPGETFVRIEAPRGEIGCYIASDGKKEPYRLKFRRPSFYNLQILPKLLKGENLANVIAILGSIDIVLGEVDG”, which “soluble on expression in E. coli” value is on record?
**A.** not soluble

**Q.** For “MKIARLNLWHVPLTSHTAYYMADGKTCDTVETVVIAVQTDTGITGWGEVCPIPHYLPAYARGVAPALTELAPVILGADPVGVGALMERVDAVLHGHPYAKSALDIALWDITGQVAGLPLHALLGGWRAADMPLYHSITCIAPDDMARIAREAQAQGITQFQVKLGASGDWQTDVERLAKVREAVGPGPLVYGDWNCGATSLEAIRVGRAVAQLDIMLEQPCATLEDCARVQRATGLPMKIDELAHDTASLLTAHRLGIMDAVALKLSKFGGLSTTRRARDLCLHLGARMCIEDTWGSDITTAALLHLGAASEPGRVLNVCDLSGYVAPRLAPDAPVRANGRIAPPEGAGLGITVDRGALGVPDLILD”, which “soluble on expression in E. coli” value is on record?
**A.** soluble

**Q.** For “MGSDKIHHHHHHMAKIKHGFSGQRLIVYPFYVIEQALNNPLVADLVVHSMGYFPKAESHYIDRASGCGEYLLIYCTKGEGWYVLDGKRYVVPENHFFILPAEKPHQYGSSEHDPWYIYWAHFKGKKAKYISDQLQGVIPIDMDDNSRIGDRIAFFDELLNVLESGTDEATVNYVNLSFNHLIASFLYVKTYREAKFSKSKAENTFFISLATHFMTENLENKLTLKELASHFGYSESYMYRLFFKETGYAPMNYFLHMKIDRACQLLLHTNMKINQVALKLGFDDPYYFSRIFKKIVGTSPKDYRHSLPK”, which “soluble on expression in E. coli” value is on record?
**A.** not soluble

**Q.** With “MTEYIQDAIPAKLAIAIANPIFPQLDSQLRAGRHISIEMLDEHAFLMDFQTELESFYRRYHVDLIRAPEGFFYLRPKASTLIARSAMSEMEMLVGKVLCYLYLSPERLAQQGIFSQDDVYEELLNLADENKLLKAVNPRSTGSDLDRAKLAEKVGGALRRLARIGIITRVGEQNSKKFIISEAVFRFGADVRAGDDPREVQLRLIRDGEATTPTLLTTEAIEFAEDGARDELEESEAELEHHHHHH” as the sequence, how does the “soluble on expression in E. coli” value read?
**A.** soluble

**Q.** For “MSKLRFRVVETAFKKKAVEVATPAERPSEYFGKYVFNKEKMFKYLPSKVYNALIDAIDNGAPLDRSIADEVAAGMKKWAVEMGVTHYTHWFAPLTEGTAEKHDAFVEHDGKGGMMEEFTGKLLVQQEPDASSFPNGGIRNTFEARGYSAWDPSSPAFIVDDTLCIPTVFIAYTGEALDYKAPLLKALRAVDKAATAVCHYFNPEVKKVVAYLGWEQEYFLVDEGLYAARPDLLMTGRTLMGHDSAKNQQLEDHYFGAIPTRVAAFMKDLEIEALKLGIPVKTRHNEVAPNQFELAPIFEECNLANDHNLLIMSLMRKVSRRHGFRVLLHEKPFKGVNGSGKHNNWSLGTDTGILLMGPGKTPEDNLRFVTFVVNTLMAVYRHNGLLKASISSATNAHRLGANEAPPAIISSFLGKQLSQVLDHIENSTKDDLINLSGKQGMKLDIPQIPELLIDNTDRNRTSPFAFTGNRFEFRAVGSEANCASAMIALNAAVAEQLMKFKKDVDALIEKGEPKVSAILEVIRGYIKECKAIHFDGNGYSDEWKVEAARRGLDCETSVPVIFDNYLKPETIAMFEAIGVMTKKELEARNEVKWETYTKKIQIEARVLGDLAMNHIIPVATQYQTDLINNVYKMQSLFPADKAARLSAKNLELIEEIADRTAFIKEHVDAMIEARKVANKIESEREKAIAYHDTIVPALEEIRYHIDKLELIVDNQMWTLPKYRELLFVR”, which “soluble on expression in E. coli” value is on record?
**A.** soluble

**Q.** With “MGSDKIHHHHHHMSKAKRLMELMMVINRKRRFTVKELAEEFSVSSRTILRDLQELSELGVPLYSEVGPHGGYEVLNERVLPPIAFTEEEAVAIFFTVHALRHFSALPFQAESSSVNHKFYSYMPEDVKERIDQLKNRFDFETPMRPLATPYLPTLLDAAIKQNVVSIEYETSQEKTKREIQPIGVYARDGFWYCPSYCFLREDMRLFRCDRITYVTEQTTNNPLNFRHVHLGNWQSYMKQERNVLDFYVELSQDGVQRCVAEQWLKPHLHIRQDGSGWLEGPFPESEVPYFSYYFIGFGHDATVKQPVQLVTLIKKSLRELLSKYNGEKEGLPQKSF” as the sequence, how does the “soluble on expression in E. coli” value read?
**A.** not soluble

**Q.** Which “soluble on expression in E. coli” value does the source give for “MCRIPVMIVSQPKQLKALSDPTRIKILELLREHPMSVSEIAERLGRDKSTVYRHIKALEDAGLVEVVEKIGNEVVYGRVAYVFLLVPNSNKEIEDLRRAYLSREVEKLIEVLEDSGIRIRDKEKFRSIVQKVFRDIENQSQHILSRLMNSSFDEIALIHILNFLTFLYSHKYVEESKQLFKLLDI” here?
**A.** soluble

**Q.** With “DAYIGVLIDDLVTKGTNEPYRLLTSRAEYRLLLRHDNADLRLTEIGHRIGLISDERYAAFEKKKAAIEAEKKRLHSVIIKPSPENQEYIRSLGGSELKDGVRGTDLMKRPEMNYETVTKLAPPEVPVPQDVAEQVEIQVKYEGYIEKSLQQVEKLKKMENKKIPDRIDYDAIKGIATEARQKLKNVRPLSVAQASRISGVNPADISILLVYLE” as the sequence, how does the “soluble on expression in E. coli” value read?
**A.** not soluble
